Results from PMC12416549 (2024).

Target: T1, TNFR1 (Homo sapiens, UniProt P19438)
T1 chain: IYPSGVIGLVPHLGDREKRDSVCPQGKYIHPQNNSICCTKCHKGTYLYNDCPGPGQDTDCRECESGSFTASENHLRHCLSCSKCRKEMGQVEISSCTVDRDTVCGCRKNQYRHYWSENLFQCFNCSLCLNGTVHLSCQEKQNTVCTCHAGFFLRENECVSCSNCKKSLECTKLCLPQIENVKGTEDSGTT
Assay: yeast display SC50

B1: E22P (designed binder)
chain: SMEEEVEKAAKEYEKKKKEAIPKHLEKLKAKDKEAAERFLKELEEAAKEYAKDEAKTMSEEEAKRRAKKYKEKVLLSELSEEEQKEIKEAEEKLVRTILKYVEEAAK
apparent Kd (screen): 12.5 nM

B2: E44R (designed binder)
chain: SMEEEVEKAAKEYEKKKKEAIEKHLEKLKAKDKEAAERFLKELREAAKEYAKDEAKTMSEEEAKRRAKKYKEKVLLSELSEEEQKEIKEAEEKLVRTILKYVEEAAK
apparent Kd (screen): 0.593 nM

B3: A10H (designed binder)
chain: SMEEEVEKAHKEYEKKKKEAIEKHLEKLKAKDKEAAERFLKELEEAAKEYAKDEAKTMSEEEAKRRAKKYKEKVLLSELSEEEQKEIKEAEEKLVRTILKYVEEAAK
apparent Kd (screen): 3.3 nM

B4: T57W (designed binder)
chain: SMEEEVEKAAKEYEKKKKEAIEKHLEKLKAKDKEAAERFLKELEEAAKEYAKDEAKWMSEEEAKRRAKKYKEKVLLSELSEEEQKEIKEAEEKLVRTILKYVEEAAK
apparent Kd (screen): 0.304 nM

B5: K11E (designed binder)
chain: SMEEEVEKAAEEYEKKKKEAIEKHLEKLKAKDKEAAERFLKELEEAAKEYAKDEAKTMSEEEAKRRAKKYKEKVLLSELSEEEQKEIKEAEEKLVRTILKYVEEAAK
apparent Kd (screen): 0.446 nM

B6: V6A (designed binder)
chain: SMEEEAEKAAKEYEKKKKEAIEKHLEKLKAKDKEAAERFLKELEEAAKEYAKDEAKTMSEEEAKRRAKKYKEKVLLSELSEEEQKEIKEAEEKLVRTILKYVEEAAK
apparent Kd (screen): 0.539 nM

B7: K100C (designed binder)
chain: SMEEEVEKAAKEYEKKKKEAIEKHLEKLKAKDKEAAERFLKELEEAAKEYAKDEAKTMSEEEAKRRAKKYKEKVLLSELSEEEQKEIKEAEEKLVRTILCYVEEAAK
apparent Kd (screen): 3 nM

B8: A9S (designed binder)
chain: SMEEEVEKSAKEYEKKKKEAIEKHLEKLKAKDKEAAERFLKELEEAAKEYAKDEAKTMSEEEAKRRAKKYKEKVLLSELSEEEQKEIKEAEEKLVRTILKYVEEAAK
apparent Kd (screen): 0.49 nM

B9: L43T (designed binder)
chain: SMEEEVEKAAKEYEKKKKEAIEKHLEKLKAKDKEAAERFLKETEEAAKEYAKDEAKTMSEEEAKRRAKKYKEKVLLSELSEEEQKEIKEAEEKLVRTILKYVEEAAK
apparent Kd (screen): 0.49 nM

B10: E82G (designed binder)
chain: SMEEEVEKAAKEYEKKKKEAIEKHLEKLKAKDKEAAERFLKELEEAAKEYAKDEAKTMSEEEAKRRAKKYKEKVLLSELSEGEQKEIKEAEEKLVRTILKYVEEAAK
apparent Kd (screen): 0.446 nM

B11: K85P (designed binder)
chain: SMEEEVEKAAKEYEKKKKEAIEKHLEKLKAKDKEAAERFLKELEEAAKEYAKDEAKTMSEEEAKRRAKKYKEKVLLSELSEEEQPEIKEAEEKLVRTILKYVEEAAK
apparent Kd (screen): 18.3 nM

B12: A46G (designed binder)
chain: SMEEEVEKAAKEYEKKKKEAIEKHLEKLKAKDKEAAERFLKELEEGAKEYAKDEAKTMSEEEAKRRAKKYKEKVLLSELSEEEQKEIKEAEEKLVRTILKYVEEAAK
apparent Kd (screen): 0.49 nM

B13: K16Y (designed binder)
chain: SMEEEVEKAAKEYEKYKKEAIEKHLEKLKAKDKEAAERFLKELEEAAKEYAKDEAKTMSEEEAKRRAKKYKEKVLLSELSEEEQKEIKEAEEKLVRTILKYVEEAAK
apparent Kd (screen): 0.446 nM

B14: D53R (designed binder)
chain: SMEEEVEKAAKEYEKKKKEAIEKHLEKLKAKDKEAAERFLKELEEAAKEYAKREAKTMSEEEAKRRAKKYKEKVLLSELSEEEQKEIKEAEEKLVRTILKYVEEAAK
apparent Kd (screen): 2.73 nM

B15: E60R (designed binder)
chain: SMEEEVEKAAKEYEKKKKEAIEKHLEKLKAKDKEAAERFLKELEEAAKEYAKDEAKTMSREEAKRRAKKYKEKVLLSELSEEEQKEIKEAEEKLVRTILKYVEEAAK
apparent Kd (screen): 1.16 nM

B16: E45N (designed binder)
chain: SMEEEVEKAAKEYEKKKKEAIEKHLEKLKAKDKEAAERFLKELENAAKEYAKDEAKTMSEEEAKRRAKKYKEKVLLSELSEEEQKEIKEAEEKLVRTILKYVEEAAK
apparent Kd (screen): 2.48 nM

B17: E12R (designed binder)
chain: SMEEEVEKAAKRYEKKKKEAIEKHLEKLKAKDKEAAERFLKELEEAAKEYAKDEAKTMSEEEAKRRAKKYKEKVLLSELSEEEQKEIKEAEEKLVRTILKYVEEAAK
apparent Kd (screen): 0.539 nM

B18: E91L (designed binder)
chain: SMEEEVEKAAKEYEKKKKEAIEKHLEKLKAKDKEAAERFLKELEEAAKEYAKDEAKTMSEEEAKRRAKKYKEKVLLSELSEEEQKEIKEALEKLVRTILKYVEEAAK
apparent Kd (screen): 13.8 nM

B19: S1T (designed binder)
chain: TMEEEVEKAAKEYEKKKKEAIEKHLEKLKAKDKEAAERFLKELEEAAKEYAKDEAKTMSEEEAKRRAKKYKEKVLLSELSEEEQKEIKEAEEKLVRTILKYVEEAAK
apparent Kd (screen): 0.49 nM

B20: K8Q (designed binder)
chain: SMEEEVEQAAKEYEKKKKEAIEKHLEKLKAKDKEAAERFLKELEEAAKEYAKDEAKTMSEEEAKRRAKKYKEKVLLSELSEEEQKEIKEAEEKLVRTILKYVEEAAK
apparent Kd (screen): 0.956 nM

B21: E19W (designed binder)
chain: SMEEEVEKAAKEYEKKKKWAIEKHLEKLKAKDKEAAERFLKELEEAAKEYAKDEAKTMSEEEAKRRAKKYKEKVLLSELSEEEQKEIKEAEEKLVRTILKYVEEAAK
apparent Kd (screen): 0.539 nM

B22: V95A (designed binder)
chain: SMEEEVEKAAKEYEKKKKEAIEKHLEKLKAKDKEAAERFLKELEEAAKEYAKDEAKTMSEEEAKRRAKKYKEKVLLSELSEEEQKEIKEAEEKLARTILKYVEEAAK
apparent Kd (screen): 6.43 nM

B23: M2E (designed binder)
chain: SEEEEVEKAAKEYEKKKKEAIEKHLEKLKAKDKEAAERFLKELEEAAKEYAKDEAKTMSEEEAKRRAKKYKEKVLLSELSEEEQKEIKEAEEKLVRTILKYVEEAAK
apparent Kd (screen): 0.956 nM

B24: V95P (designed binder)
chain: SMEEEVEKAAKEYEKKKKEAIEKHLEKLKAKDKEAAERFLKELEEAAKEYAKDEAKTMSEEEAKRRAKKYKEKVLLSELSEEEQKEIKEAEEKLPRTILKYVEEAAK
apparent Kd (screen): 5.31 nM

B25: A35L (designed binder)
chain: SMEEEVEKAAKEYEKKKKEAIEKHLEKLKAKDKELAERFLKELEEAAKEYAKDEAKTMSEEEAKRRAKKYKEKVLLSELSEEEQKEIKEAEEKLVRTILKYVEEAAK
apparent Kd (screen): 0.446 nM

B26: E61A (designed binder)
chain: SMEEEVEKAAKEYEKKKKEAIEKHLEKLKAKDKEAAERFLKELEEAAKEYAKDEAKTMSEAEAKRRAKKYKEKVLLSELSEEEQKEIKEAEEKLVRTILKYVEEAAK
apparent Kd (screen): 1.27 nM

B27: K73Q (designed binder)
chain: SMEEEVEKAAKEYEKKKKEAIEKHLEKLKAKDKEAAERFLKELEEAAKEYAKDEAKTMSEEEAKRRAKKYKEQVLLSELSEEEQKEIKEAEEKLVRTILKYVEEAAK
apparent Kd (screen): 1.05 nM

B28: E89T (designed binder)
chain: SMEEEVEKAAKEYEKKKKEAIEKHLEKLKAKDKEAAERFLKELEEAAKEYAKDEAKTMSEEEAKRRAKKYKEKVLLSELSEEEQKEIKTAEEKLVRTILKYVEEAAK
apparent Kd (screen): 2.25 nM

B29: T97H (designed binder)
chain: SMEEEVEKAAKEYEKKKKEAIEKHLEKLKAKDKEAAERFLKELEEAAKEYAKDEAKTMSEEEAKRRAKKYKEKVLLSELSEEEQKEIKEAEEKLVRHILKYVEEAAK
apparent Kd (screen): 0.653 nM

B30: D32K (designed binder)
chain: SMEEEVEKAAKEYEKKKKEAIEKHLEKLKAKKKEAAERFLKELEEAAKEYAKDEAKTMSEEEAKRRAKKYKEKVLLSELSEEEQKEIKEAEEKLVRTILKYVEEAAK
apparent Kd (screen): 1.05 nM

B31: I98Q (designed binder)
chain: SMEEEVEKAAKEYEKKKKEAIEKHLEKLKAKDKEAAERFLKELEEAAKEYAKDEAKTMSEEEAKRRAKKYKEKVLLSELSEEEQKEIKEAEEKLVRTQLKYVEEAAK
apparent Kd (screen): 0.0498 nM

B32: R66L (designed binder)
chain: SMEEEVEKAAKEYEKKKKEAIEKHLEKLKAKDKEAAERFLKELEEAAKEYAKDEAKTMSEEEAKRLAKKYKEKVLLSELSEEEQKEIKEAEEKLVRTILKYVEEAAK
apparent Kd (screen): 18.3 nM

B33: A36C (designed binder)
chain: SMEEEVEKAAKEYEKKKKEAIEKHLEKLKAKDKEACERFLKELEEAAKEYAKDEAKTMSEEEAKRRAKKYKEKVLLSELSEEEQKEIKEAEEKLVRTILKYVEEAAK
apparent Kd (screen): 0.79 nM

B34: K69S (designed binder)
chain: SMEEEVEKAAKEYEKKKKEAIEKHLEKLKAKDKEAAERFLKELEEAAKEYAKDEAKTMSEEEAKRRAKSYKEKVLLSELSEEEQKEIKEAEEKLVRTILKYVEEAAK
apparent Kd (screen): 0.446 nM

B35: I87W (designed binder)
chain: SMEEEVEKAAKEYEKKKKEAIEKHLEKLKAKDKEAAERFLKELEEAAKEYAKDEAKTMSEEEAKRRAKKYKEKVLLSELSEEEQKEWKEAEEKLVRTILKYVEEAAK
apparent Kd (screen): 12.5 nM
